From patent US20090169520A1 (YISSUM RESEARCH DEVELOPMENT COMPANY OF THE HEBREW …, published 2009)
Each block holds one binder with its values, some of them ahead of it.

Biological target: synthetic Aβ (1-40) peptide (Biosource) (UniProt P05067 672-711)
Test: cell-based or functional assay

synthetic Aβ (1-40) peptide (Biosource), sequence (P05067 672-711 limits assumed): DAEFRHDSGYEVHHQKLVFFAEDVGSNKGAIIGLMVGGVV

Lag (fold change) of Aβ fibrillation against no addition: 1.1 fold
Lag (h) before onset of Aβ fibrillation: 4.4 h
Rate (fold change) of Aβ fibrillation against no addition: 0.8 fold
Binder: DTLDEAERQWKAEFHRWSSYMVHWKNQFDHYSKQDRCSDL [ASP40 (synthetic AChE-S C-terminal peptide, residues 575-614 of hAChE)]

Lag (fold change) of Aβ fibrillation against no addition: 1.5 fold
Lag (h) before onset of Aβ fibrillation: 5.9 h
Rate (fold change) of Aβ fibrillation against no addition: 0.7 fold
B1: ASP63 (synthetic AChE-S C-terminal peptide, residues 548-610 of hAChE) (peptide)
peptide: PLEVRRGLRAQACAFWNRFLPKLLSATDTLDEAERQWKAEFHRWSSYMVHWKNQFDHYSKQDR

Lag (fold change) of Aβ fibrillation against no addition: > 1.9 fold
Lag (h) before onset of Aβ fibrillation: > 7.5 h
Rate (fold change) of Aβ fibrillation against no addition: 0.4 fold
Binder: GNIDEAEWEWKAGFHRWNNYMMDWKNQFNDYTSKKESCVGL [BSP41 (synthetic BChE C-terminal peptide, residues 562-602 of hBChE)]
